# Experimental data from publication PMC13324855.
# Values joined by “and” are separate entries in the source; they are usually repeats but may differ in a detail not shown here. Equal values may be shown once.
# Key:
# [1] = target: SARS-CoV-2 spike receptor-binding domain, Wuhan-Hu-1 (WT RBD) (SARS-CoV-2) (UniProt P0DTC2); assay: flow cytometry on cells
# [2] = target: SARS-CoV-1 receptor-binding domain (RBD), wild type (SARS-CoV-1); assay: flow cytometry on cells
substance,measurement,setting,value
"angiotensin converting enzyme 2 (ACE2) peptidase domain, ACE2D (domain or fragment)",EC25,[1],2 nM
same,Kd,[2],1.51 nM and 1.72 nM and 1.9 nM
